Values quoted from earlier work as cited in patent publication US9994615B2, “Self-regulated peptide hydrogel for insulin delivery” (Massachusetts Institute of Technology, priority 2012, dated 2018).

How the values were obtained:
[1] = after subcutaneous injection

Row | pKa | Compound | Time basal level of insulin is maintained [1]
1 | approximately 8.9 | OB(O)c1ccccc1 [phenylboronic acid] | –
2 | – | insulin detemir | up to 20 hours
3 | – | glargine | up to 24 hours
